Laboratory results as given in patent publication US20260285931 (published 2026).
Where a chain is given by its changes, count along the chain named. Each block holds one binder with its values, some of them ahead of it.

Biological target: T1, CD127-Fc (IL-7Ralpha Fc) (human, UniProt P16871)
T1 chain: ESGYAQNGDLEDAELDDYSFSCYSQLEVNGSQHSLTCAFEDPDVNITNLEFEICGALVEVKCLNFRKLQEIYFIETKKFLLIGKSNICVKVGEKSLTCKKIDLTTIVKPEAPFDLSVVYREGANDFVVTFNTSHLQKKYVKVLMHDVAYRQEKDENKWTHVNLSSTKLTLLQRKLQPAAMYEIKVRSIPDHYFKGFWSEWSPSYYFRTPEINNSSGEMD
Experiment: BLI

- Kd: 35.3 nM
B1: IL-7_s10 (designed binder)
chain: KKLNDLCFLKRLLQEIKTCWNKYTKKVPQVSTPTLVQYESVLMVSIDQLLDSMKEIGSNCLNNEFNFFKRHICDANKECMFLFRAARKLRQFLKMQSTGDFDLHLLKVSEGTTILLQSTGCS

- Kd: 34.6 nM
B2: IL-7_s10a (designed binder)
chain: B1 chain with V36K

- Kd: 31.9 nM
B3: IL-7_s13 (designed binder)
chain: KKLNDLCFLKRLLQEIKTCWNKILVEKCSKADDKETCFAEDGKQYESVLMVSIDQLLDSMKEIGSNCLNNEFNFFKRHICDANKECMFLFRAARKLRQFLKMQSTGDFDLHLLKVSEGTTILLQSTGCS

- Kd: 56.7 nM
B4: IL-7_s7 (designed binder)
chain: KKLNDLCFLKRLLQEIKTCWNKIVHTECSHGDLLECADDRKQYESVLMVSIDQLLDSMKEIGSNCLNNEFNFFKRHICDANKECMFLFRAARKLRQFLKMQSTGDFDLHLLKVSEGTTILLQSTGCS

- Kd: 7.57 nM
B5: IL-7_s5 (designed binder)
chain: KKLNDLCFLKRLLQEIKTCWNKILQKFGERAAKQYESVLMVSIDQLLDSMKEIGSNCLNNEFNFFKRHICDANKECMFLFRAARKLRQFLKMQSTGDFDLHLLKVSEGTTILLQSTGCS

- Kd: 17.1 nM
B6: IL-7_s6 (designed binder)
chain: KKLNDLCFLKRLLQEIKTCWNKILSQRFPKAEFAEVKQYESVLMVSIDQLLDSMKEIGSNCLNNEFNFFKRHICDANKECMFLFRAARKLRQFLKMQSTGDFDLHLLKVSEGTTILLQSTGCS

- Kd: 64.7 nM
B7: IL-7 wt-degly (protein)
chain: DCDIEGKDGKQYESVLMVSIDQLLDSMKEIGSNCLNNEFNFFKRHICDANKEGMFLFRAARKLRQFLKMQSTGDFDLHLLKVSEGTTILLQCTGQVKGRKPAALGEAQPTKSLEEQKSLKEQKKLNDLCFLKRLLQEIKTCWNKILMGTKEH

- Kd: 10.6 nM
B8: IL-7_s2 (designed binder)
chain: KKLNDLCFLKRLLQEIKTCWNKICSAKQEPERNECFKQYESVLMVSIDQLLDSMKEIGSNCLNNEFNFFKRHICDANKECMFLFRAARKLRQFLKMQSTGDFDLHLLKVSEGTTILLQSTGCS

- Kd: 33.4 nM
B9: IL-7_s8 (designed binder)
chain: B8 chain with I23E, A26E, Q28P, E29L, P30L, R32K, N33S, E34H, F36I

- Kd: 3.6 nM
B10: IL-7_s13a (designed binder)
chain: KKLNDLCFLKRLLQEIKTCWNKICSKADDKETCKQYESVLMVSIDQLLDSMKEIGSNCLNNEFNFFKRHICDANKECMFLFRAARKLRQFLKMQSTGDFDLHLLKVSEGTTILLQSTGCS

- Kd: 1.89 nM
B11: IL-7_s1 (designed binder)
chain: KKLNDLCFLKRLLQEIKTCWNKIFAQYLQQSPFEDHKQYESVLMVSIDQLLDSMKEIGSNCLNNEFNFFKRHICDANKECMFLFRAARKLRQFLKMQSTGDFDLHLLKVSEGTTILLQSTGCS

- Kd: 14.5 nM
B12: IL-7_s4a (designed binder)
chain: KKLNDLCFLKRLLQEIKTCWNKRYKAAFTECSQAADKAACLLPKLDELKQYESVLMVSIDQLLDSMKEIGSNCLNNEFNFFKRHICDANKECMFLFRAARKLRQFLKMQSTGDFDLHLLKVSEGTTILLQSTGCS

- Kd: 33.6 nM
B13: IL-7_s4 (designed binder)
chain: KKLNDLCFLKRLLQEIKTCWNKIAFTECSQAADKAACLLPKLDEYESVLMVSIDQLLDSMKEIGSNCLNNEFNFFKRHICDANKECMFLFRAARKLRQFLKMQSTGDFDLHLLKVSEGTTILLQSTGCS

- Kd: 39.3 nM
B14: IL-7_s11 (designed binder)
chain: KKLNDLCFLKRLLQEIKTCWNKKVGSKCSKHPEAKRMPCAEDYLKQYESVLMVSIDQLLDSMKEIGSNCLNNEFNFFKRHICDANKECMFLFRAARKLRQFLKMQSTGDFDLHLLKVSEGTTILLQSTGCS

- Kd: 49.3 nM
B15: IL-7_s9 (designed binder)
chain: KKLNDLCFLKRLLQEIKTCWNKICSAAADPHECYKQYESVLMVSIDQLLDSMKEIGSNCLNNEFNFFKRHICDANKECMFLFRAARKLRQFLKMQSTGDFDLHLLKVSEGTTILLQSTGCS

- Kd: 25.9 nM
B16: IL-7_s12 (designed binder)
chain: KKLNDLCFLKRLLQEIKTCWNKLHEKTPVSDRVTKQYESVLMVSIDQLLDSMKEIGSNCLNNEFNFFKRHICDANKECMFLFRAARKLRQFLKMQSTGDFDLHLLKVSEGTTILLQSTGCS
